What was measured:
Assay in all cases: fluorescence polarisation
Settings in all cases: both partners purified
[1] = biological target: TgPDCD5 middle-position peptide (FITC-VLTPAAQE) (T. gondii (GT1 strain), FITC label, printed before the first residue (FITC-VLTPAAQE))
[2] = biological target: TgPDCD5 C-terminal peptide (FITC-KNTPKVTM) (T. gondii (GT1 strain), FITC label, printed before the first residue (FITC-KNTPKVTM))
[3] = biological target: TgPDCD5 N-terminal peptide (FITC-MQPEEFA) (T. gondii (GT1 strain), FITC label, printed before the first residue (FITC-MQPEEFA))

B1: TgCyp18 (enzyme)
chain: not shown
**Q.** Which Kd [1] does the source give for B1 here?
**A.** The Kd was 1200 µM.

**Q.** What about the Kd [2] of the same binder?
**A.** Its Kd is 311 µM.

**Q.** What about the Kd [3] of the same binder?
**A.** The Kd was 1400 µM.

Source: publication PMC11134355 (JACS Au, 2024)
